Assays:
[1] = biological target: L19-UG-TNFRII (human) (UniProt P20333); assay: SDS-PAGE, non-reducing; SDS-PAGE 4%-12% of purified L19-UG-TNFRII under non-reducing conditions
[2] = biological target: L19-UG-TNFRII (human) (UniProt P20333); assay: SEC; Superdex 200 (S200) FPLC of purified L19-UG-TNFRII in native conditions

## L19-UG-TNFRII (from UniProt P20333 23-257)
[1]
  stoichiometry N: 2
[2]
  stoichiometry N: 2

— paper PMC3226451
